# Assay results published in US20100150834A1, “HIGH AFFINITY EPHB RECEPTOR BINDING COMPOUNDS AND METHODS OF USE THEREOF” (priority 2006, published 2010).
# Experiments:
# [1] = molecular target: murine EphB4-Alkaline Phosphatase (murine) (UniProt P54761); test: competition ELISA: murine EphB4-AP binding to immobilised murine ephrin-B2-Fc
# murine EphB4-Fc (murine) = murine EphB4-Fc (murine) (UniProt P54761); test: ELISA: murine EphB4-Fc on protein A plates, biotinylated peptide detected with streptavidin-HRP
# [2] = molecular target: murine EphB4-Alkaline Phosphatase (murine) (UniProt P54761); test: ELISA binding curve: TNYL-RAW Fc immobilised, increasing volumes of murine EphB4 AP, OD405; one experiment
# Chain of murine EphB4-Alkaline Phosphatase (murine) (P54761 16-539): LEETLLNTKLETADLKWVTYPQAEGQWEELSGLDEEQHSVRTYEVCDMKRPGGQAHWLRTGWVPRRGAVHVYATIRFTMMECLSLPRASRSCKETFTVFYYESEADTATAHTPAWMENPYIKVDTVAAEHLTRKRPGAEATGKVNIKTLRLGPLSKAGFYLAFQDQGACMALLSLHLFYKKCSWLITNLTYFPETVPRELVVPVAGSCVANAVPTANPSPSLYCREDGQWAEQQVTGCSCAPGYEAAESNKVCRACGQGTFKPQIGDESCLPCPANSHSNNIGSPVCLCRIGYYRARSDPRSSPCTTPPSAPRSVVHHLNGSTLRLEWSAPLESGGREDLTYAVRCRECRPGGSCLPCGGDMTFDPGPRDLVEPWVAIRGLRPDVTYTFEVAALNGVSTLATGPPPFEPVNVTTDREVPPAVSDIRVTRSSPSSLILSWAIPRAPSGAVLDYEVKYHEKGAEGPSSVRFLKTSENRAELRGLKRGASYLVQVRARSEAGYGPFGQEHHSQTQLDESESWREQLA
# Chain of murine EphB4-Fc (murine) (P54761 16-539 limits assumed): as the sequence (P54761 16-539) above
Substance,IC50 [1] [nM],Kd (murine EphB4-Fc (murine)) [nM],Kd [2] [nM]
PEG 10 kDa-linked TNYL-RAW-biotin dimer (peptide),9,0.9,–
PEG 3.4 kDa-linked TNYL-RAW-biotin dimer (peptide),7,0.9,–
TNYL-RAW-biotin coupled to monofunctional 10 kDa PEG (monomer) (peptide),21,1.4,–
TNYL-RAW Fc fusion protein,–,–,10
